Measured values: US20210380703A1
Where a chain is given by its changes, count along the chain named.

B1: 372_B09 (antibody, V domains shown)
VH: EVQLLESGGGLVQPGGSLRLSCAASGFTFSSYSMNWVRQAPGKGLEWVSSINYNSGYTSYADSVKGRFTISRDNSKNTLYLQMNSLRAEDTAVYYCARGATWHDTHLDYWGQGTLVTVSS
VL: DIQMTQSPSSLSASVGDRVTITCRASQSILTYLNWYQQKPGKAPKLLIYAATSRASGVPSRFSGSGSGTDFTLTISSLQPEDFATYYCQQSYETPLTFGGGTKVEIK
B2: 365_B01 (antibody, V domains shown)
VH: B1 VH with S30D, S33G, N35H, S49A, G99S, T101N, H106A
VL: B1 VL with L30S, T31S, L33V, L47V, T94S
B3: 376_A07 (antibody, V domains shown)
VH: B1 VH with S50G, S55G, T58K
VL: B1 VL with E93D, T94S
B4: 374_D04 (antibody, V domains shown)
VH: B1 VH with S49A, S50G, S55G
VL: B1 VL with T31S, L47V, A55H, E93D
B5: 365_F06 (antibody, V domains shown)
VH: B1 VH with S33G, S49A, S50G, T58K, G99S, T101N, H106A
VL: B1 VL with T31S, L33V, Y92D, E93N, T94L
B6: 365_E01 (antibody, V domains shown)
VH: B1 VH with S31D, S50G, T58K, S59G, G99S, T101N, H106A
VL: B1 VL with L30I, T31S, E93D, T94S
B7: 375_H08 (antibody, V domains shown)
VH: B1 VH with S50G, S55G
VL: B1 VL with R54L, E93D, T94S
B8: 375_C11 (antibody, V domains shown)
VH: B1 VH with S55G
VL: B1 VL with T31S, L33V, A55H, E93D
B9: 365_E05 (antibody, V domains shown)
VH: B1 VH with S33G, N35H, S49A, S50G, S55G, G99S, T101N, H106A
VL: B1 VL with L30V, T31S, L33V, R54L, E93D, T94N
B10: 365_C11 (antibody, V domains shown)
VH: B1 VH with S49A, S50G, S55G, T58K, G99S, T101N
VL: B1 VL with L30I, L47V, A51V, E93S, T94L
B11: 365_A12 (antibody, V domains shown)
VH: B1 VH with S33G, N35H, S49A, S50G, S55G, R98K, G99S, T101N
VL: B1 VL with L33V, A55H, T94N
B12: 372_H11 (antibody, V domains shown)
VH: B1 VH with S33G, N35H, S49A, S50G, S55G
VL: B1 VL with T31S, L33V, T94N
B13: 373_B09 (antibody, V domains shown)
VH: B1 VH with S30D, S50G, S55G, T58K
VL: B1 VL with T31S, L47V, R54L
B14: 375_A03 (antibody, V domains shown)
VH: B1 VH with S30D, S49A, S50G, S55G
VL: B1 VL with A55H, E93D, T94N
B15: 374_H05 (antibody, V domains shown)
VH: B1 VH with S49A, S50G, S55G
VL: B1 VL with T31S, L33V, L47V, E93D, T94N
B16: 373_F07 (antibody, V domains shown)
VH: B1 VH with S50G, T58K
VL: B1 VL with T31S, R54L
B17: 365_G01 (antibody, V domains shown)
VH: B1 VH with S30D, S33G, S49A, S50G, T58K, G99S, T101N, H106A
VL: B1 VL with L33V, A51T, E93D, T94S
B18: 375_F10 (antibody, V domains shown)
VH: B1 VH with S50G, S55G, S59G
VL: B1 VL with L47V, E93D
B19: 365_D09 (antibody, V domains shown)
VH: B1 VH with S33G, N35H, S50G, G99S, T101N, H106A
VL: B1 VL with T31S, Y92D, T94S
B20: 375_B03 (antibody, V domains shown)
VH: B1 VH with S49A, S50G, S55G
VL: B1 VL with E93D, T94S
B21: 365_F12 (antibody, V domains shown)
VH: B1 VH with S31D, S50G, S55G, G99S, T101N
VL: B1 VL with L33V, L47V, A55H
B22: 365_B07 (antibody, V domains shown)
VH: B1 VH with S33G, N35H, S49A, G99S, T101N, H106A
VL: B1 VL with T94N
B23: 366_B08 (antibody, V domains shown)
VH: B1 VH with S30D, S33G, S50N, S55G, T58K, S59G, G99S, T101N
VL: B1 VL with L30V, T31S, A55H, E93D, T94N
B24: 365_B06 (antibody, V domains shown)
VH: B1 VH with S30D, S33G, N35H, S50N, S55G, T58K, G99S, T101N, H106A
VL: B1 VL with L33V, A51T, R54L, E93D, T94L
B25: 374_D09 (antibody, V domains shown)
VH: B1 VH with S30D, S33G, S49A, S50N, S55G, T58K, S59G
VL: B1 VL with L30I, T31S, L33V, R54L, E93D
B26: 365_C10 (antibody, V domains shown)
VH: B1 VH with S33G, N35H, S49A, S55G, G99S, T101N, H106A
VL: B1 VL with T31S, L33V, R54L, T94S
B27: 366_A07 (antibody, V domains shown)
VH: B1 VH with S33G, N35H, S49A, S55G, S59G, G99S, T101N, H106A
VL: B1 VL with L30V, T31S, L33V, L47V, A55H, T94S
B28: 365_D12 (antibody, V domains shown)
VH: B1 VH with S30D, S33G, S50N, S55G, S59G, G99S, T101N, H106A
VL: B1 VL with L30V, L47V, E93D
B29: 365_B11 (antibody, V domains shown)
VH: B1 VH with S33G, N35H, S49A, S50G, S55G, G99S, T101N, H106A
VL: B1 VL with L30I, T31S, L47V, A51T, A55H, E93D, T94S
B30: 374_G05 (antibody, V domains shown)
VH: B1 VH with S50N, T58K, S59G
VL: B1 VL with L30I, T31S, E93D, T94L
B31: 365_H03 (antibody, V domains shown)
VH: B1 VH with S30D, S31D, S33G, S49A, S50G, S55G, T58K, G99S, T101N, H106A
VL: B1 VL with T31S, L33V, L47V, R54L, A55H, E93N, T94N
B32: 374_A04 (antibody, V domains shown)
VH: B1 VH with S49A, S50G, S55G
VL: B1 VL with L47V, E93D
B33: 374_A05 (antibody, V domains shown)
VH: B1 VH with S31D, S33G, S49A, S50N, S55G, T58K, S59G
VL: B1 VL with L30V, T31R, L47V, R54L, T94L
B34: 372_E08 (antibody, V domains shown)
VH: B1 VH with S31D, S50N, S55G
VL: B1 VL with L30I, E93N, T94L
B35: 365_C12 (antibody, V domains shown)
VH: B1 VH with S33G, S49A, S50G, T58K, G99S, T101N, H106A
VL: B1 VL with L30V, T31S, L33V, L47V, A51V, R54L, E93D
B36: 365_E09 (antibody, V domains shown)
VH: B1 VH with S33G, N35H, S49A, T58K, G99S, T101N, H106A
VL: B1 VL with L33V, L47V, Y92D, E93D, T94S
B37: 365_H11 (antibody, V domains shown)
VH: B1 VH with S50G, S59G, G99S, T101N, H106A
VL: B1 VL with E93D, T94S
B38: 365_C01 (antibody, V domains shown)
VH: B1 VH with S30D, S33G, T58K, G99S, T101N
VL: B1 VL with L30V, T31S, L47V, A51V, T94S
B39: 366_D04 (antibody, V domains shown)
VH: B1 VH with S50G, S55G, G99S, T101N, H106A
VL: B1 VL with L30S, T31S, L33V, A51T
B40: 365_A03 (antibody, V domains shown)
VH: B1 VH with S49A, S50G, T58K, S59G, G99S, T101N, H106A
VL: B1 VL with T31S, L47V, A51V, E93D, T94S
B41: 365_F01 (antibody, V domains shown)
VH: B1 VH with S30D, S50G, T58K, S59G, G99S, T101N
VL: B1 VL with L30V, T31S, L47V, R54L, T94L
B42: 365_G11 (antibody, V domains shown)
VH: B1 VH with S33G, S49A, S50N, S55G, S59G, G99S, T101N, H106A
VL: B1 VL with L30I, L33V, A51V, A55H, E93N, T94S
B43: 373_D06 (antibody, V domains shown)
VH: B1 VH with S49A, S50G, S55G
VL: B1 VL with L30V, E93D
B44: 365_E07 (antibody, V domains shown)
VH: B1 VH with S30D, S33G, N35H, S50G, R98K, G99S, T101N
VL: B1 VL with T31S, E93D, T94N
B45: 366_B10 (antibody, V domains shown)
VH: B1 VH with S33G, S50G, G99S, T101N, H106A
VL: B1 VL with L30I, T31S, E93D, T94N
B46: 376_A02 (antibody, V domains shown)
VH: B1 VH with S49A, S50G, S55G, T58K
VL: B1 VL with T31S, E93D, T94L
B47: 365_A11 (antibody, V domains shown)
VH: B1 VH with S30D, S31D, S33G, S50G, G99S, T101N, H106A
VL: B1 VL with T31S, L47V, R54L, T94S
B48: 366_B12 (antibody, V domains shown)
VH: B1 VH with S49A, S50G, T58K, S59G, G99S, T101N, H106A
VL: B1 VL with L33V, E93D, T94N

Biological target: Human Fc (human)
Assay: ELISA; negative control

optical density [OD] | Binder
0.308 | B1
0.445 | B2
0.221 | B3
0.179 | B4
0.329 | B5
0.363 | B6
0.204 | B7
0.199 | B8
0.379 | B9
0.296 | B10
0.422 | B11
0.392 | B12
0.172 | B13
0.203 | B14
0.257 | B15
0.172 | B16
0.39 | B17
0.21 | B18
0.302 | B19
0.209 | B20
0.411 | B21
0.269 | B22
0.403 | B23
0.281 | B24

optical density [OD] | Binder
0.171 | B25
0.397 | B26
0.309 | B27
0.34 | B28
0.305 | B29
0.158 | B30
0.366 | B31
0.275 | B32
0.159 | B33
0.369 | B34
0.332 | B35
0.322 | B36
0.375 | B37
0.376 | B38
0.338 | B39
0.342 | B40
0.341 | B41
0.278 | B42
0.192 | B43
0.302 | B44
0.424 | B45
0.22 | B46
0.299 | B47
0.311 | B48
